From IntAct's records for PubMed 17396155

B1: General receptor for phosphoinositides 1-associated scaffold protein (Rattus norvegicus (Rat)), Q8R4T5 (parent)
chain: MTLRRLRKLQQKEEATAAPDLAGRAPDSEAARAAPTPSGPPAAAAPPGAPGDELYAALEDYHPAELYRALAVSGGTLPRRKGSGFRWKNFTQSPEQQRKVLTLEKGDNQTFGFEIQTYGLHHREEQRVEMVTFVCRVHESSPAQLAGLTPGDTIASVNGLNVEGIRHREIVDIIKASGNVLRLETLYGTSIRKAELEARLQYLKQTLYEKWGEYRSLMVQEQRLVHGLVVKDPSIYDTLESVRSCLYGAGLLPGSLPFGPLLAAPGGARGGSRRAKGDTDDAVYHTCFFGGAEPQALPPPPPPARAPGPGSAETPASVLCPAPRATLSRSASVRCAGPGGGGGGGAPGALWTEAREQALCGAGLRKTKYRSFRRRLLKFIPGLNRSLEEEESQL

Variants of: B1
Conditions: with grm5_rat Grm5, P31424
Sequence of grm5_rat Grm5, P31424 (P31424 whole entry, looked up): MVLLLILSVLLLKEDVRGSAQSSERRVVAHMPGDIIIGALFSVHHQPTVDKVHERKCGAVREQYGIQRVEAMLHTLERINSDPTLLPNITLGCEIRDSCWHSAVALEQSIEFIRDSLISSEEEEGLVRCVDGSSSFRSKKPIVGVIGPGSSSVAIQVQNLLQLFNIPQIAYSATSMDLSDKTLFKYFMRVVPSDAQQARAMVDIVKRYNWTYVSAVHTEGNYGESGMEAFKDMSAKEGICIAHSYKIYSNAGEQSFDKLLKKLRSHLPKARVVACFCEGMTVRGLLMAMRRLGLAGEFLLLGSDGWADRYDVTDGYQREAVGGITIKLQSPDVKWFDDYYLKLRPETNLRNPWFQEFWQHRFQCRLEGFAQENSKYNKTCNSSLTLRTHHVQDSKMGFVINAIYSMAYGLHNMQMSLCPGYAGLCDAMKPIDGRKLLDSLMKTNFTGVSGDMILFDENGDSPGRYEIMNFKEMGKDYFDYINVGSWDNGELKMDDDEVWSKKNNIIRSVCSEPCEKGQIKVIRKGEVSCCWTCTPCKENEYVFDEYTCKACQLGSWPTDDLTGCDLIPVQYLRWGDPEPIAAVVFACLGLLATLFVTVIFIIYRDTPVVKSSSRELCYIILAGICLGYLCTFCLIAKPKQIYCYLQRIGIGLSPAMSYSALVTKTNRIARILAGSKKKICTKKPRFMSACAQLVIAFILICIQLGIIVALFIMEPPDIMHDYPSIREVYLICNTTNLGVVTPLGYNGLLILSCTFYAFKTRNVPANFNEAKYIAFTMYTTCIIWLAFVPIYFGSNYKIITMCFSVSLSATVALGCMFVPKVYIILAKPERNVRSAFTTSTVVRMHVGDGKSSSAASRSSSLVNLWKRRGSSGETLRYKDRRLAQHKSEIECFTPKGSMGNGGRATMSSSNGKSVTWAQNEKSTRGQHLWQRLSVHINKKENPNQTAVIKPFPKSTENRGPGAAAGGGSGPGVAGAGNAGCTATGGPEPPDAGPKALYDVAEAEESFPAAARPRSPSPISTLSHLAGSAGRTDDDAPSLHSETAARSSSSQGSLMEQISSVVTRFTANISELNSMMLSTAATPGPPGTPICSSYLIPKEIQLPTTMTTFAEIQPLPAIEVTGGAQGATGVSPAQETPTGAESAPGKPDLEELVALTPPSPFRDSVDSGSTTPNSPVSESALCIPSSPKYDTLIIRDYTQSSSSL

Variant	effect of a mutation on the interaction
E114K	decreasing interaction
